Consider four substances from paper PMC5618221.

The target of test [1] is Hbl B in culture supernatant of B. cereus strain MHI 1532 (Bacillus cereus strain MHI 1532 (endogenous in culture supernatant)) (UniProt P80172). As to the kind of experiment: co-IP.
For test [2], the target named is recombinant Hbl L1 (haemolysin BL component L1) (Bacillus cereus strain F837/76). Description: SPR; BIACORE 3000; rHbl L1 amine-coupled to CM5 chip (560 RU); rHbl L2 or B injected 7.8 nM to 2 uM at 30 uL/min, 20 °C, in PBS, 1 mM DTT, 0.005% Tween 20; KD from steady state, one-site model, mean of three (L2) or four (B) experiments; L1 + B did not reach full saturation at lower concentrations, KD likely slightly underestimated.

The target in test [3] is recombinant Hbl B (haemolysin BL binding component B) (Bacillus cereus strain F837/76) (UniProt P80172). Description: SPR; BIACORE 3000; rHbl B amine-coupled to CM5 chip (500 RU); rHbl L2 injected 31.2 nM to 4 uM at 30 uL/min, 20 °C, in PBS, 1 mM DTT, 0.005% Tween 20; KD from steady state, mean of four experiments. For orientation: In SPR one partner is held on a chip, and binding of the other changes the refractive index at the surface.

Regarding “Hbl L1 in culture supernatant of B. cereus strain MHI 1532 (natural protein)”, in test [1], the percent in elution fraction is 180%, the percent in sample flow-through was less than 5% and the percent in wash fraction was less than 5%.

Turning to “Hbl L2 in culture supernatant of B. cereus strain MHI 1532 (natural protein)”, in test [1], the percent in elution fraction was determined as 29%, the percent in sample flow-through turned out to be 51% and the percent in wash fraction was found to be 20%.

One may read the Kd as the free concentration of one partner at which half of the binding sites on the other are occupied at equilibrium, for simple one-to-one binding. Take “recombinant Hbl B (haemolysin BL binding component B) (from UniProt P80172 32-375) (natural protein)”: the Kd in test [2] was 470 nM.

For “recombinant Hbl L2 (haemolysin BL component L2) (natural protein)”, the Kd was 3400 nM in test [3] and 150 nM in test [2].
